This data set deals with the molecule itself. As to the kind of experiment: cryo-EM structure.

B1: human myosin regulatory light chain (RLC, MYL12B) (natural protein, UniProt O14950 1-172, looked up)
chain: MSSKKAKTKTTKKRPQRATSNVFAMFDQSQIQEFKEAFNMIDQNRDGFIDKEDLHDMLASLGKNPTDAYLDAMMNEAPGPINFTMFLTMFGEKLNGTDPEDVIRNAFACFDEEATGTIQEDYLRELLTTMGDRFTDEEVDELYREAPIDKKGNFNYIEFTRILKHGAKDKDD
Take B1: the binding result was “binds”.
